Experimental data published in patent US20140212458A1.

Target: BG505.T332N Env on Env-pseudotyped virus (HIV-1 BG505 (clade A))

For CD4-IgG2 (Fc fusion), the IC50, neutralization of BG505.T332N pseudovirus, TZM-bl cells was 0.433 µg/mL.
